System: MS2 coat protein
Test: apparent KD of MS2 coat protein; designed switch direction (-1 OFF switch, 1 ON switch): -1; higher = weaker reporter binding
Method in brief: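 SNAP-549-labelled MS2 coat protein was titrated, doubling from 0.7 or 1.5 nM to 3 µM, over designed RNA switches transcribed on Illumina chips by stalled E. coli RNA polymerase. Runs were done without input, with 200 uM small-molecule ligand, or with an oligonucleotide input. Apparent KD is the per-design median over clusters of curve-fitted normalised fluorescence.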

[1] = Eterna round: R95, input ligand: microRNA oligo, concentration not stated
[2] = input ligand: microRNA oligo, concentration not stated
[3] = Eterna round: R95, input ligand: FMN 200 uM
[4] = Eterna round: R95, input ligand: none

Row | Sequence | apparent KD of MS2 coat protein [1] [nM] | apparent KD of MS2 coat protein (input ligand: FMN 200 uM) [nM] | apparent KD of MS2 coat protein [2] [nM] | apparent KD of MS2 coat protein (input ligand: none) [nM] | apparent KD of MS2 coat protein [3] [nM] | apparent KD of MS2 coat protein [4] [nM]
1 | GUUAAGUGAGGAUAUGGUGAGUAGUGCCUGAGCGCUGCUCACCAGAAGGCACAUGAGGAUCACCCAUGUAUAGC [JL-ex4-2.06 denovo] (puzzle: Exclusion 4) | 15.2 | – | – | – | – | –
2 | ACAUGAGGAUCACCCAUGUAAACAUAAUGGCUCAUGUAGAGUCAGGAUAUGCGUGGCGAACAAUCGCAGAAGGGACAAGACUGG [Deportation 28 - Jieux - Exclusion NG 3] (Eterna round: R96, puzzle: Exclusion NG 3) | – | 29.2 | 19.9 | 27.8 | – | –
3 | AAUCAGCGAGGAUAUACAGAUUCUGGGUGCGGCUCGGCGAGACAUGAGGAUCACCCAUGUAGAAGGUGCUAGCC [Teoredre] (puzzle: Exclusion 2) | 29.2 | – | – | – | – | –
4 | AAGAAGCGAGGAUAUACAUGAGGAUCACCCAUGUACCUCAUAAAGAAAAGAAAAGAAAGUAGAAGGCGCAAAAG [Default title] (puzzle: Exclusion 3) | 23.1 | – | – | – | 24.2 | 18.4
5 | GAAAAGGUAGGAUAUACGAAAACAAAGGGUAGAAACAAAACACAUGAGGAUCACCCAUGUAGAAGGACCAAAAG [salish99_ex2_r3_097] (puzzle: Exclusion 2) | 25.6 | – | – | – | 164 | 25.4
6 | CCGCUCCGUGUAGGAUAUUGGCGUGCCCUGCGCCGAGAAGGACAUGAGGAUCACCCAUGUAUGUUAUUAUCACGCGUGGCGCAC [Design 76] (Eterna round: R96, puzzle: Exclusion NG 1) | – | 15.9 | 12.9 | 17 | – | –
7 | UCACGGGACUGAGGAUAUACAUCAACAAUGGUUGUAGAAGGCAGAAGGUUGAAUCAUAUACAAAACAUGAGGAUCACCCAUGUA [JR_ExcNG1_Sub032] (Eterna round: R96, puzzle: Exclusion NG 1) | – | 23 | 23.8 | 26.2 | – | –
8 | AAGUACCGUCACGAUAGUGAUGGUACAACAAGUAGUGAAACAUGAGGAUCACCCAUGUCCUCAAUUGCUCGUCUUAU [Sensor 3 - 81] (puzzle: Sensor v3, turn-off variant 2) | 264 | – | – | – | 776 | 1020
9 | GAUUAUGCGAGCUUUAGGGACAUGAGGAUCACCCAUGUUCGUCUUAUUAGUCUGAAUACACUGACAUACCUAAAUCU [JMF 55] (puzzle: Sensor v3, turn-off variant 1) | 19.5 | – | – | – | 14.8 | 17.8
10 | CUGUUUUUCGCAGGAUAUGCUCCUCCUUUAUUUGCAGAAGGGCGUUAAACAUGAGGAUCACCCAUGUAUGGUAAUGACUUUUUC [JR_ExcNG1_Sub064] (Eterna round: R96, puzzle: Exclusion NG 1) | – | – | 16.9 | – | – | –
11 | UAGAUGGGAGGAUAUGCAUAGAUACAGAUUCAUGUAGUGCUACAUGAGGAUCACCCAUGUAGAAGGCCCGUCUU [JL-ex2-2.20 Mayanne mod] (puzzle: Exclusion 2) | 19.9 | – | – | – | – | –
12 | GGAGAGGCAGGAUAUACAUGAGGAUCACCCAUGUGAGCGAGGAGAACGAGCAAGAGAGGUAGAAGGGCCGGGAG [AK-MS2ROC-r4-exclusion3-27] (Eterna round: R97, puzzle: Exclusion 3) | – | 46.5 | – | 44.9 | – | –
13 | CUUUUGUGAGGAUAUCAGUAGUAAUACAAUAGUAUUACUACUGAGAAGGCACAUGAGGAUCACCCAUGUUCCUU [Ex4 344 Omei mod 1] (puzzle: Exclusion 4) | 14.5 | – | – | – | – | –
14 | GAAAACGUAGGAUAUUAAUACUUAUACAUGAGGAUCACCCAUGUUUGGUGGGUUUAAGAAUGAGAAGGGCGAUGAA [EX5 #8] (Eterna round: R97, puzzle: Exclusion 5) | – | 446 | – | 717 | – | –
15 | UGCCUAAGAGGAUAUACAUAGAAAUAGAUUCAUGUAAAACUACAUGAGGAUCACCCAUGUAGAAGGCUUGGGCU [Mat - Exclusion 2 - JL Mod - D54] (Eterna round: R97, puzzle: Exclusion 2) | – | 155 | – | 27.6 | – | –
16 | AUCAUGGACGCAGGAUAUACAUGAGGAUCACCCAUGUAGUAUGAUCAGUGAUGGUCGUCGAUAGUGUAGAAGGGCGGCUAGUAG [random] (Eterna round: R96, puzzle: Exclusion NG 2) | – | 34.4 | 24.2 | 32.8 | – | –
17 | CUUAUGUGAGGAUAUGCCUGGCCGUGAGGCCAAAUUGAUUAGCAGAAGGCACAUGAGGAUCACCCAUGUGCGGG [jl-ex4-4.67 ViennaUCT mod] (Eterna round: R97, puzzle: Exclusion 4) | – | 340 | – | 479 | – | –
18 | AGUACUAUCACGAAAGUGAUAGUACAAAGAGCAAGUGGAACAUGAGGAUCACCCAUGUCCUCAUAUGCUCGUCUUAU [salish99-s2-v2-x003] (Eterna round: R96, puzzle: Sensor v2, turn-off variant 2) | – | 14.6 | 322 | 16.1 | – | –

Row | Sequence | apparent KD of MS2 coat protein [1] [nM] | apparent KD of MS2 coat protein (input ligand: FMN 200 uM) [nM] | apparent KD of MS2 coat protein [2] [nM] | apparent KD of MS2 coat protein (input ligand: none) [nM] | apparent KD of MS2 coat protein [3] [nM] | apparent KD of MS2 coat protein [4] [nM]
19 | AUAAUAUAUGUAGGAUAUCUGCACGAUUAGUGCAGAGAAGGACAUGAGGAUCACCCAUGUAAUUAAGAUCAAUUAUUAAAUUAU [ENG1/4-B1] (Eterna round: R96, puzzle: Exclusion NG 1) | – | 84.3 | 24.6 | 35.4 | – | –
20 | AGUAACCGUCACGAAAGUGAUGGUUACGCAAGCAAAUGUACAUGAGGAUCACCCAUGUCCUCAAUUGCUCGUCUUAU [Sensor 3 - 51] (puzzle: Sensor v3, turn-off variant 2) | 175 | – | – | – | 102 | 114
21 | AGUCGGUCAGGAUAUGCAAUUGUGGACAUGAGGAUCACCCAUGUAACGUGGGCUUGGUUUGUAGAAGGGACGUGCA [EX5 #90] (Eterna round: R97, puzzle: Exclusion 5) | – | 378 | – | 626 | – | –
22 | CUUGACUGAGGAUAUUGUGCUGCUGACAUGAGGAUCACCCAUGUAUGUUAACUCGGCCGUCGAGAAGGCAGAAAGG [BotMod 19 - Jieux - Exclusion 5] (Eterna round: R97, puzzle: Exclusion 5) | – | 14.2 | – | 40.8 | – | –
23 | AGUACUAACACGCGAGUGUUAGUACAAUAAGCUUGUGAAACAUGAGGAUCACCCAUGUCCUCAUAAGCUCGUCUUAU [salish99_TOv2_r3_059] (puzzle: Sensor v3, turn-off variant 2) | 674 | – | – | – | 16.7 | 14.5
24 | GAGGACUUAGGAUAUACAUGAGGAUCACCCAUGUCCCUAAGCAUGCGACAGCCCUCGAGUAGAAGGGAGGACCA [Eternabot (Original) Solution 3] (Eterna round: R97, puzzle: Exclusion 3) | – | 14.8 | – | 14.7 | – | –
25 | CAAGCUUUGCGAGGAUAUGAUGGCCGAUAUGCCUCAGAAGGCGCAGAAACUUGAGGAUCACCCAAGUGAUGCAACGACGACCAU [Mutated MS2 EX1.12] (Eterna round: R96, puzzle: Exclusion NG 1) | – | 27.1 | 10.7 | 15.7 | – | –
26 | AGGACAUGAGGAUCACCCAUGUAGUGAGGUGUAUCCGAAGACGAGGAUAUACAGAGGAAAUAUCUGUAGAAGGUGUAAUAAAAU [Istediso] (Eterna round: R96, puzzle: Exclusion NG 3) | – | 725 | 247 | 299 | – | –
27 | GAUCAUGCAGGAUAUACAGUAACCAUGAAAACAUGGUUGCUACAUGAGGAUCACCCAUGUAGAAGGGCAUGAUC [Omei Ex2 A2] (Eterna round: R97, puzzle: Exclusion 2) | – | 17.9 | – | 16.9 | – | –
28 | AAAACUGCCUAGGAUAUCUGAAGCCGAGGUAGAAGAGAAGGAGGCACAUGAGGAUCACCCAUGUCCCUCAUAAA [EX6 A.8] (Eterna round: R97, puzzle: Exclusion 6) | – | 16.8 | – | 14.3 | – | –
29 | UUGUACAUAGGAUAUAGUUGUUUCUACAUGAGGAUCACCCAUGUUAUUCCUCUCUCCCUUCUAGAAGGAUGUUUUU [JR_E5_Sub006] (puzzle: Exclusion 5) | 43.6 | – | – | – | – | –
30 | AGAUCGAGUGUGAGGAUAUUGACCGGACGACCCAUCGAGAAGGCACAUGAGGAUCACCCAUGUGAUUCGGUUCA [Brourd's EX4 #57] (Eterna round: R97, puzzle: Brourd's mod of Exclusion 4) | – | 27.1 | – | 15.4 | – | –
31 | UGCCGUUGAGGAUAUACAUUGAAUUUGAUUCAUGUAAAACUACAUGAGGAUCACCCAUGUAGAAGGCAAUGGCU [Mat - Exclusion 2 - JL Mod - D63] (Eterna round: R97, puzzle: Exclusion 2) | – | 25.7 | – | 21.3 | – | –
32 | AGAUAUAGAGGAUAUUUGCGGGAACACAUGAGGAUCACCCAUGUCGAAUAGACGCCCUAUAAAGAAGGCUAGACUG [Eternabot (L2) Solution 86] (Eterna round: R97, puzzle: Exclusion 5) | – | 15.7 | – | 32.8 | – | –
33 | AAAAUACAUGAGGAUCACCCAUGUCAGGAUAUGCUAAAAAAAAAAUUAAAAAAAAAAUGUAGAAGGGACUAAAA [Exclusion Z2] (Eterna round: R96, puzzle: Exclusion 1) | – | – | 71.6 | – | – | –
34 | CCUCCACAUGAGGAUCACCCAUGUCAGGAUAUCGUGUGUUUUUUUUCGGCCGCGCGUGCGAGAAGGGACGUCUU (puzzle: Exclusion 1) | 19.1 | – | – | – | – | –
35 | CUUUUGUGAGGAUAUUAGUAGUAAAUAAAUAAAUUUACUACUGAGAAGGCACAUGAGGAUCACCCAUGUUCCUC [salish99_ex4_r3_060] (Eterna round: R96, puzzle: Exclusion 4) | – | 703 | 38.5 | 40.9 | – | –

From the supplement of paper PMC9170038
